The values below come from patent publication US20240218057A1 (ROCKEFELLER UNIVERSITY, published 2024).

A word on the EC50: it is the midpoint of the concentration-response curve. For orientation: Kd means a measure of binding affinity in units of concentration. A higher Kd goes with lower affinity.

In assay [1] the target is T1, SARS-CoV-2 receptor-binding domain (RBD), S protein residues 319-539 (SARS-CoV-2, UniProt P0DTC2 319-539).
T1 construct: also called WT RBD; SARS-COV-2 RBD
As to the kind of experiment: ELISA on coated RBD. A general note: An ELISA detects its analyte on a solid surface through an enzyme-linked reagent.

For assay [2], the target named is SARS-COV-2 RBD (SARS-COV-2, UniProt P0DTC2 319-539). The experiment in a line: ELISA, RBD coated on plate.
Assay [3] addresses SARS-CoV-2 receptor-binding domain (WT RBD; S protein residues 319-539) (SARS-CoV-2, UniProt P0DTC2 319-539). As to the kind of experiment: BLI (Octet Red), IgG on protein A biosensor, WT RBD in solution, 1:1 fit. (In general: In BLI a coated tip is dipped into the sample, and binding shifts an interference pattern.)

B1: C970 (antibody, V domains shown)
VH: QVQLQESGPGLVKPSETLSLTCTVSGDSINKYYWGWIRQPPGKGLEWIGYIYYSGTTNYNPSLKSRVTISVDTSKTQFSLKLSSVTAADTAVYYCARLLSTEWSFNWFDPWGQGTLVTVSS
VL: SYELTQPPSVSVSPGQTASITCSGDTLGDKYACWYQQKPGQSPLLVIYQNNKRPSGIPERFSGSNSGNTATLTISGTQAMDEADYYCQAWDSSTAYVFGTGTKVTVL
The molecule B1 returned an EC50 in assay [1] of 3.71 ng/mL.

B2: C572 (antibody, V domains shown)
VH: EVQLVESGGGLIKPGRSLRLSCTASGFTFGDYAMTWFRQAPGKGLEWVGFIRSKAYGGTTGYAASVKYRFTISRDDSKSIAYLQMDSLKTEDTAVYYCTRWDGWSQHDYWGQGTLVTVSS
VL: DIVMTQSPLSLSVTPGEPASISCRSSQSLLHSNGNNYFDWYLQKPGQSPQLLIYLASNRASGVPDRFSGSGSGTDFTLKISRVEAEDVGVYYCMQVLQIPYTFGQGTKLEI
Molecule B2 returned an EC50 in assay [2] of 2.9 ng/mL.

B3: C101 (antibody, V domains shown)
VH: QVQLVESGGGLIQPGGSLRLSCAASGFIVSSNYMSWVRQAPGKGLEWVSVIYSGGSTFYTDSVKGRFTISRDNSKNTLYLQMNSLRAEDTAVYYCVRDYGDFYFDYWGQGTLVTVSS
VL: EIVLTQSPGTLSLSPGERATLSCRASQSVSSSYLAWYQQKPGQAPRLLIYGASSRATGIPDRFSGGGSETDFTLTISRLEPEDCAVYYCQQYGSSPRTFGQGTKVEIK
Consider B3, for which the concentration for a half-maximal effect (EC50) in assay [2] turned out to be 1.51 ng/mL.

B4: C580 (antibody, V domains shown)
VH: EVQLVQSGAEVKKAGESLKISCNSSGYSFTNYWIAWVRQVPGKGLEWMGIIYLGDSDTRYSPSFQGRVTISADKSISAAYLHWSSLKASDTAIYYCARGGPPGGVKLELTDFWGQGTLVTVSS
VL: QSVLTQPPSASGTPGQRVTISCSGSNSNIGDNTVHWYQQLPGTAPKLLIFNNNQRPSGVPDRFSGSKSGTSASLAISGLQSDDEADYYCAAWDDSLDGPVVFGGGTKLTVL
Molecule B4 showed an EC50 in assay [2] of 1.81 ng/mL.

B5: C570 (antibody, V domains shown)
VH: QVQLQESGPGLVKPSETLSLTCTVSGASISSYYWSWIRQPPGKGLEWIGYIYYSGSTNYNPSLKSRVTISLDTSKNQFSLQLSSVTAADTAVYYCATYYFDNSGYSYGLDVWGQGTTVTVSS
VL: DIQMTQSPSSLSASVGDRVTIACRASQSISSYLHWYQQQPGKAPKLLIYAVTNLQSGVPSRFSGSGSGTDFTLTISSLQPEDFATYYCQQSYSLPQTFGQGTKVEIK
Regarding B5, the EC50 in assay [2] turned out to be 0.74 ng/mL.

B6: C980 (antibody, V domains shown)
VH: QVQLVQSGAEVKKPGSSVKVSCEASGGTFSSDSINWVRQAPGQGLEWMGRIIPIFGATNYAQKFQGRVTITADKSTDTVYMEVSSLTSEDTAVYYCARGGIAVGGWWFDPWGQGTLVTVSS
VL: EIVMTQSPATLSVSPGERATLSCRASESVSSKLAWYQQKPGQAPRLLIYGASTRATGISARFSGSGSGTDFTLTISSLESEDFAVYYCQQYNHWPPNTFGQGTKLEIK
In turn, B6 gave an EC50 in assay [1] of 4.07 ng/mL.

B7: C573 (antibody, V domains shown)
VH: QVQLQESGPGLVKPSGTLSLTCAVSGGSISTVNWWSWVRQPPGKGLEWIGEIHHSGNTNHNPSLRSRVTISVDKSKNQFSLKLRSVTAADTAVYYCARDGGRPGDAFDLWGQGTMVTVSS
VL: QSALTQPASVSGSPGQSITISCTGTSSDVGGYNYVSWYQQHPGKVPKVMIYDVSNRPSGISNRFSGSKSGNTASLTISGLQAEDEADYYCNSYRSNSTRVFGTGTKVTV
B7 yielded a concentration for a half-maximal effect (EC50) in assay [2] of 2.2 ng/mL.

B8: C566 (antibody, V domains shown)
VH: QVQLQESGPGLVKSSQTLSLNCSVFGASISSGGYYWTWIRQHPGKGLEWIGYIHYRGTYYNPSLKSRVTMSVDTSKNQFSLKVRSVSAADTAIYYCARAIVVVTLNWFDLWGQGTLVTVSS
VL: NFMLTQPHSVSESPGKTVTISCSGSGGSIASNYVQWYQQRPGSAPTAVIYEDNQRPSGVPDRFSGSIDSSSNSASLTISGLKTEDEADYYCQSYDTSNPVIFGGGTKLTV
Molecule B8 showed a 50% effective concentration (EC50) in assay [2] of 5.88 ng/mL.

B9: C044 (antibody, V domains shown)
VH: EVQLVESGGGLVQPGGSLRLSCAASGFTFSSYSMNWVRQAPGKGLEWVSYISSSSSTIYYADSVKGRFTISRDNAKNSLYLQMNSLRDEDTAVYYCAREAHDGALTDYGDYLNWFDPWGQGTLVTVSS
VL: SYELTQPPSVSVAPGKTARITCGGNNIGSKSVHWYQQKPGQAPVLVIYYDSDRPSGIPERFSGSNSGNTATLTISRVEAGDEADYYCQVWDSSSDHLYWVFGGGTKLTVL
B9 returned a dissociation constant (Kd) in assay [3] of 189 nM.

B10: C902 (antibody, V domains shown)
VH: EVQLVQSGAEVKKPGESLRISCKGSGYSFHTYWIHWVRQMPGKGLEWMGKIDPSDSYTNYSPSFQGHVTFSADRSISTAYLQWSSLKASDTATYYCARLSWSPPTRTTDEKNWFDPWGQGTLVTVSS
VL: DIQLTQSPSFLAASAGDRVTITCRASQGISSYLAWYQQKPGKAPKVLIYAASTLQSGVPSRFSGSGSGTEFTLTISSLQPEDCATYYCQQFNSDPLTFGGGTKVEIK
As to B10, the EC50 in assay [1] was determined as 3.4 ng/mL.
